We go through one molecule from doi:10.1101/2020.04.20.049213 (bioRxiv, 2020).

For the assay, the target named is T1, JARID2 (aa 1-450) (human, UniProt Q92833 1-450, K116me3 (trimethyl-lysine at 116)).
T1 sequence: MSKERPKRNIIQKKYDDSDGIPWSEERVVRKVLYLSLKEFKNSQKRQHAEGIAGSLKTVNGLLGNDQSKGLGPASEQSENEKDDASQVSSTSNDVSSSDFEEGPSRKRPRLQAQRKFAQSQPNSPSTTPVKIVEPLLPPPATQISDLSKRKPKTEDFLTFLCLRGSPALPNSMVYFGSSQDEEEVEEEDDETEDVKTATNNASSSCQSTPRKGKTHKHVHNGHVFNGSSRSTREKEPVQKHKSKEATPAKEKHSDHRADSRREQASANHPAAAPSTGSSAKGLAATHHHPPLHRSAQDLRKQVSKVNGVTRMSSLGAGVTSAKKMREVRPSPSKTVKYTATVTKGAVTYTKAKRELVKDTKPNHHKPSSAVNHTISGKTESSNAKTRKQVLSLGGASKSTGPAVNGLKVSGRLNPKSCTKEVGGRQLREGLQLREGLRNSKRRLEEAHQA
Put plainly: cryo-EM structure.

B1: EED (aa 80-441) (domain or fragment)
chain: not shown
Regarding B1, the binding result is recorded as “binds”.
